Assay results published in US20180044653A1, “Mutant Yeast Strain Capable of Degrading Cellobiose” (Institut National de la Recherche Agronomique, priority 2015, published 2018).

Experiments:
[1] = test system: S. fibuligera β-glucosidase Bgl1; details: Yan and Lin, 1997; cited from earlier work
[2] = test system: A. niger β-glucosidase; details: Yan and Lin, 1997; cited from earlier work
[3] = Substrate specificity, aryl-glycoside; type: biochemical
Source text: (§1) When using aryl-substrates, the standard assay method was employed, simply replacing pNPGlc by another substrate as appropriate. For oligosaccharides, the release of glucose was quantified using an enzyme kit (D-Fructose/D-Glucose Assay Kit, liquid stable, Megazyme).

[4] = Optimal temperature and pH for activity; type: biochemical; details: pNPGlc
Description: (§2) Optimal temperatures and pH for the activity of Bgl1-His6 and Bgl2 were determined using pNPGlc as the substrate. Assays were either performed at pH 5.0 and various temperatures (30-70° C.), or at 30° C. in variable pH conditions (2.0 to 8.0) using either 50 mM glycine-HCl (pH 2.0), 50 mM citrate/acetate (pH 3.0-7.2), or potassium phosphate (pH 7.0-8.2) buffer. When the temperature was varied, the pH of the citrate buffer was adjusted accordingly. Stability of Bgl1-His6 and Bgl2 depending on pH and temperature was analysed as follows: enzymes were incubated at 30° C. for up to 2 h at various pH values (2.0 to 8.0), or at various temperatures (30-70° C.) for up to 2 h in 50 mM citrate buffer, pH 5.0. Residual glucosidase activity was then assayed at 30° C. in 50 mM citrate buffer, pH 5.0.

[5] = Michaelis-Menten kinetics (glucose release); type: biochemical; details: cellobiose
Source text: as §1

[6] = Subcellular fractionation and enzyme localization, activity assayed with pNPGlc; type: biochemical, Y. lipolytica
Description: Fractionation of yeast cells was carried out as described by Cummings and Fowler (1996), with slight modifications. Briefly, yeasts were cultivated until a cellular density of 6×10^7 cells/mL was reached. Then, to quantify total β-glucosidase activity, a 50 mL sample was taken and subjected to centrifugation at 8,000×g for 5 min at 4° C. thus isolating a cell pellet and supernatant. The cell pellet was disrupted in Tris-HCl buffer (50 mM, pH 7.4, 3 mM EDTA and 0.5 mM PMSF) using a MP FastPrep-24 Instrument (MP Biomedicals Inc.). β-Glucosidase activity in both the cell lysate and the supernatant was determined as described earlier in order to estimate total β-glucosidase activity. Using a second 50 mL yeast culture, a cell pellet containing approximately 2×10^8 cells/mL was obtained by centrifugation and then treated with zymolyase 100T at 10 mg/mL (Seikagaku corp roger) in 15 mL of sorbitol buffer (1 M sorbitol, 50 mM Tris-HCl, pH 7.4, 2 mM dithiothreitol, 10 mM MgCl2, 20 mM-sodium azide, 0.5 mM PMSF) at 30° C. with gentle shaking. Protoplast formation was monitored using a microscope until ≧99% of the cells was lysed when. SDS was added (1% SDS w/v). The solid protoplast fraction was then separated from the supernatant by centrifugation (1000 rpm for 5 min at 4° C.) and the latter was designated as the periplasmic fraction. The protoplasts were re-suspended in Tris-HCl buffer (50 mM Tris-HCl, pH 7.4) and disrupted by vortex in the presence of glass beads (0.4-0.45 mm). The homogenate was centrifuged (20,000×g for 2 h at 4° C.) and the supernatant and solid fractions were designated as the cytoplasmic and membrane fraction respectively. Prior to enzyme assays, the membrane fraction was suspended in citrate buffer.
Activity was assayed with pNPGlc.

[7] = β-Glucosidase activity, release of pNP from pNPGlc; type: biochemical; details: for Specific activity: pNPGlc
Description: β-Glucosidase activity was measured by quantifying the release of pNP (p-nitroplienol) from pNPGlc as described previously (Guo et al., 2011). One unit of pNPGlcase activity was defined as the amount of enzyme required to release 1 μmol pNP per min. Cellobiose phosphorylase activity was assayed by measuring the formation of Glc-1P from cellobiose as described previously (Reichenbecher et al., 1997). One unit of activity (U) was defined as the amount of enzyme required to release 1 μmol Glc-1P per min. All protein concentrations were measured using the Bradford method and bovine serum albumin as a standard (Bradford, 1976).

[8] = Stability depending on pH and temperature (residual glucosidase activity); type: physicochemical
Description: as §2

[9] = Specific activity on cellobiose; type: biochemical
Source text: as §1

Question: For `OC[C@H]1O[C@@H](O[C@H]2[C@H](O)[C@@H](O)C(O)O[C@@H]2CO)[C@H](O)[C@@H](O)[C@@H]1O` (stereo partly drawn) [Cellobiose], which Km [1] is on record?
Answer: 2800 µM

Question: What about the Km [2] of the same molecule?
Answer: 2700 µM

B1: Bgl2: β-glucosidase of Y. lipolytica encoded by BGL2 (YALI0B14289g), SEQ ID NO: 6, secreted to the culture medium (protein, listed as Yarrowia lipolytica)
chain: MLAFVLLLTMLLAAALADPFSDKDAYKHSPPYYPAPEIGRVPTDLRWRAALKVAQGMVANMTLLEKVNITTGTGWEMGPCVGNTGTVERLGIKSLCLQDGPLGIRFADLITTFPAGITIASTFSRQLVRERGAAMGRENRRKGVDITLSPVVGPLGRHANGGRIWEGFSADPYLAGKLAAEAVTGIQGQNVMAVVKHMVGNEQEHFRQLGEWQGFGFKDLKQPLSSNIDDRTLNEAYLWPFADAVRANVGSVMCSYQQINGSQGCQNAHILNGKLKEEMGFQGFVMSDWLAQRSGVASVLAGLDMSMPGDGLVWADGVPLMGYELTRSVLNGTIDESRVDDMVTRILTPILYLSITPTDPNFSSWTNDTTSYKYYGAKAGGNVTVNRHIDVRDQYTTKAALDGANAALVLLKNEKKTLPLNPTNIGNLNIFGIGSKTGPLGAVCGENMQCSDGALIEGWGSGSVYPTDYQSPYDAIKERASKDNITIGGTTQSWGNLSNVEILSAAADASVVFVLSDSGESTGIVDGNIGDRNNLTLWHNGDEVVKAVASKNPNTIVVVTTVGPVNLEKWIDNPNVTAVLLTGPAGDFGGRAAASILFGDIAPSGKLPFTIAKNDTDYIPLTTKIPEDGLPQDYFTEGTLLDYKRFDENQVTPRFEFGYGLSYSNITVENLEARYAFPSIPEFLPTPFAPSNPNKPKNAFTPHANESVFPSDIDPLNKYVYPYLNDTSEIFSNETHYPYPEGYSSEQSNSTNINGGAVGGNPALWLSAVYIVHSVSNYGPYDTGVVTQMYIAFPQDNDDLKTAPRQLRGFERSELKVGERQGILYDVQWRDLAVWDVKLQSWRVQRGEYKVYVGHSSRDFVLTTSFTLK
Question: With B1 as the molecule, how does the “activity on pNP-α-D-glucopyranoside” value [3] read?
Answer: Neither enzyme displayed activity

Question: And the “activity on pNP-β-D-galactopyranoside” value [3]?
Answer: Neither enzyme displayed activity

Question: What about the “activity on pNP-β-D-cellobioside relative to pNPGlc” value ([3]; activity on pNPGlc as benchmark) of the same molecule?
Answer: 27%

Question: And the “pH of highest activity” value ([4]; 30° C.)?
Answer: 4.0

Question: What about the “temperature of highest activity” value ([4]; pH 5.0) of the same molecule?
Answer: 50 °C

Question: What about the “KM fold lower than those of β-glucosidases from S. fibuligera and A. niger” value [5] of the same molecule?
Answer: ~4 fold

Question: What about the “Relative enzyme activity, Cytoplasm” value ([6]; fraction: Cytoplasm) of the same molecule?
Answer: 4.8 ± 0.8%

Question: What about the “Relative enzyme activity, Growth medium” value ([6]; fraction: Growth medium) of the same molecule?
Answer: 79.6 ± 1.2%

Question: And the “Relative enzyme activity, Membrane” value ([6]; fraction: Membrane)?
Answer: 3.7 ± 0.3%

Question: What about the “Relative enzyme activity, Periplasm” value ([6]; fraction: Periplasm) of the same molecule?
Answer: 25.8 ± 1.0%

Question: What about the “Relative enzyme activity, Total” value ([6]; fraction: Total) of the same molecule?
Answer: 100%

Question: What about the “decrease in specific activity after deglycosylation” value ([7]; endoglycosidase H treatment, pNPG) of the same molecule?
Answer: 60%

Question: And the Specific activity ([7]; purification step: Culture filtrate)?
Answer: 0.23 U/mg

Question: And the Specific activity ([7]; purification step: Gel filtration)?
Answer: 25.8 U/mg

Question: And the Specific activity ([7]; purification step: Ion exchange)?
Answer: 2.0 U/mg

Question: What about the Specific activity ([7]; purification step: Ultra filtration) of the same molecule?
Answer: 0.26 U/mg

Question: What about the “activity on pNPGlc of purified enzyme” value ([7]; preliminary characterization, pNPGlc as substrate) of the same molecule?
Answer: 25.8 U/mg

Question: What about the enzyme activity remained ([8]; 30° C. and 40° C. at pH 5) of the same molecule?
Answer: 100%

Question: What about the “pH range in which enzyme is stable” value ([8]; 30° C., up to 2 h) of the same molecule?
Answer: 3.5-7.0

Question: And the enzyme activity remained ([8]; pH 4.0, 5.0 and 6.0 at 30° C.)?
Answer: 100%

Question: What about the “temperature below which enzyme is stable” value ([8]; pH 5.0, up to 2 h) of the same molecule?
Answer: below 50 °C

Question: What about the “specific activity on cellobiose” value [9] of the same molecule?
Answer: 25 units/mg protein
